What was measured:
[1] = tested on: C-PAE cells; assay: Total protein synthesis, 35S-methionine incorporation; assay type: cell-based, bovine
Method: Primary human renal epithelial cells (HRE) were purchased from Clonetics (San Diego, Calif., USA) and were maintained in REGM (Clonetics Corp.). Other cell lines were obtained and maintained as described above. Cells were serum-starved for 24 hrs (0.5% FCS), stimulated with 10% FCS in the presence of T3 peptide, Tumstatin-44-131, endostatin or rapamycin for 12-24 hours. After pre-incubation of cells in methionine-free media for 1 hour, cells were labeled with ^35S-methionine for 1 hour and incorporation of radioactivity into trichloracetic acid precipitates was analyzed (Sudhakar, A. et al., 2000, Biochem. 39:12929-38; Maeshima, Y. et al., 1996, J. Amer. Soc. Nephrol. 7:2219-29). ANOVA with a one-tailed Student's t test was used to identify significant differences in multiple comparisons in the present study. A level of P<0.05 was considered statistically significant.

[2] = tested on: C-PAE cells; assay: BrdU incorporation proliferation assay; assay type: cell-based, bovine; details: 0-2.0 μM
Method: The anti-proliferative affect of Tumstatin-44-131 on C-PAE cells was examined via BrdU incorporation assay. This assay uses bromodeoxyuridine (BrdU) instead of ^3H-thymidine as a thymidine analog. BrdU is incorporated into newly synthesized DNA strands in actively proliferating cells. The BrdU incorporated into the cells can then be detected immunochemically. The assay was conducted using the BrdU proliferation assay kit (CalbioChem, San Diego, Calif., USA) according to the manufacturer's instructions, with some modifications. C-PAE cells were seeded onto 96-well plates in DMEM containing 10% FCS. The next day, the medium was replaced with DMEM containing 2% FCS with or without E. Coli-expressed Tumstatin-44-131, or full-length Tumstatin expressed in 293 cells. The plates were then incubated for 46 hours, and the cells were then pulsed for two hours with 10 nM BrdU. The cells and DNA were then fixed to the wells, reacted with anti-BrdU primary and secondary antibodies, and then developed with a calorimetric reaction supplied with the kit. The plates were then read at OD450 on a plate reader (Molecular Dynamics, Sunnyvale, Calif., USA).

[3] = tested on: PC-3 cells; assay: Annexin V-FITC apoptosis assay; assay type: cell-based, human
Method: Annexin V-FITC Labeling. In order to establish apoptosis as the potential mode of action for Canstatin, Annexin V-FITC was used to label externalized phosphatidylserine (PS), to assess apoptotic cells. 0.5×10^6 C-PAE cells, PC-3, 786-O and HEK 293 cells were added to each well of a 6 well tissue culture plate in 10% FBS supplemented DMEM (BioWhittaker, Walkersville, Md., USA) overnight. The next day, fresh medium was added to all wells together with 40 ng/ml TNF-α (positive control) or 15 μg/ml Canstatin. Control cells received an equal volume of PBS. After 24 hours of treatment, medium containing detached cells was collected and attached cells were trypsinized and combined with detached cells and centrifuged at 3,000×g. Cells were then washed and phosphatidyl-serine externalization (an early apoptotic indicator) was measured by labeling with FITC-labeled annexin V (Clontech, Palo Alto, Calif., USA) according to the manufacturer's instructions. Annexin V-FITC-labeled cells were counted using a FAC Star Plus flow cytometer (Becton-Dickenson, Waltham, Mass., USA). For each treatment 15,000 cells were counted and stored in listmode. […] Annexin V-FITC labeled cells were counted using a FACStar Plus flow cytometer (Becton-Dickinson, Waltham, Mass., USA). For each treatment, 15,000 cells were counted and stored in listmode.

[4] = tested on: HUVECs; assay: Endothelial tube formation on Matrigel; assay type: cell-based, human
Method: Tumstatin-44-131 was also found to inhibit endothelial tube formation, as shown by Matrigel assay. The Matrigel assay was performed as described in the examples above. Briefly, HUVECS were allowed to form tubes on Matrigel-coated plates incubated with or without 5 μg/ml E. Coli-expressed Tumstatin-44-131. BSA-treated cells and yeast-expressed human endostatin (5 and 20 μg/ml) was used as controls. […] The average percentage tube branch formation after treatment was 22.7±3.1 for the BSA treatment, 2.1±2.0 for Tumstatin-44-131 treatment, while the 5 μg/ml and 20 μg/ml endostatin produced an average of 19.4±3.0 and 7.5±6.0, respectively.

[5] = tested on: PC-3 tumors; assay: PC-3 xenograft in athymic nude NCRNU mice (Example 46); assay type: in vivo
Method: Tumstatin-44-131 was also tested for its ability to suppress tumor growth. Male athymic nude NCRNU mice, of 5-6 weeks of age and about 25 g, were implanted with […] approximately 2×10^6 PC-3 (prostate cancer carcinoma) cells into the dorsal subcutis. […] The tumors were allowed to grow to about 50 mm^3, and animals were then pair-matched into groups of 6 mice. Initial doses of protein or vehicle (PBS, control) were given on the day of pair-matching (Day 1). Tumstatin-44-131, Tum-5-125-C-A, or human endostatin in sterile PBS was intraperitoneally injected daily b.i.d. at doses ranging from 1 to 20 mg/kg for 20 days. Control animals received injection of PBS vehicle. In one treatment, continuous subcutaneous delivery of Tumstatin-44-131 was done using surgically implanted Alzet mini-pumps. The mice were weighed twice weekly, and tumor measurements were taken, starting on Day 1. Estimated mean tumor volumes were calculated, and at Day 21, the mice were weighed, sacrificed, and their tumors excised and examined by light microscopy and CD31 immunostaining. The mean treated tumor weight was divided by the mean control tumor weight was subtracted from one, and expressed as a percentage to give the tumor growth inhibition for each group.

LQRFTTMPFLFCNVNDVCNF [T3]
maximal inhibition of protein synthesis ([1]; 22.7 μM): about 45%

B1: Tumstatin: NC1 domain of the α3 chain of type IV collagen, residues 1-244 (SEQ ID NO:10) (protein, listed as Homo sapiens)
chain: GLKGKRGDSGSPATWTTRGFVFTRHSQTTAIPSCPEGTVPLYSGFSFLFVQGNQRAHGQDLGTLGSCLQRFTTMPFLFCNVNDVCNFASRNDYSYWLSTPALMPMNMAPITGRALEPYISRCTVCEGPAIAIAVHSQTTDIPPCPHGWISLWKGFSFIMFTSAGSEGTGQALASPGSCLEEFRASPFLECHGRGTCNYYSNSYSFWLASLNPERMFRKPIPSTVKAGELEKIISRCQVCMKKRH
incorporation of BrdU [2]: decreased incorporation of BrdU
apoptosis of PC-3 cells [3]: not observed

B2: Tumstatin-44-131: residues 44 to 131 of full-length Tumstatin (SEQ ID NO:33) (protein)
chain: FSFLFVQGNQRAHGQDLGTLGSCLQRFTTMPFLFCNVNDVCNFASRNDYSYWLSTPALMPMNMAPITGRALEPYISRCTVCEGPAIAI
modifications: Tumstatin-45-132 (amino acids 45-132 of SEQ ID NO10)
incorporation of BrdU [2]: decreased incorporation of BrdU
average percentage tube branch formation ([4]; 5 μg/ml, BSA 22.7±3.1): 2.1±2.0
tumor growth inhibition ([5]; 1 mg/kg i.p. b.i.d., 20 days): 74.1%
tumor growth inhibition ([5]; continuous delivery via Alzet mini-pump, 1 mg/kg over 24 hours): 70.1%

B3: endostatin: tumor associated angiogenesis inhibitor used as comparator (protein, UniProt P39060 1572-1754, looked up)
Endostatin: HSHRDFQPVLHLVALNSPLSGGMRGIRGADFQCFQQARAVGLAGTFRAFLSSRLQDLYSIVRRADRAAVPIVNLKDELLFPSWEALFSGSEGPLKPGARIFSFDGKDVLRHPTWPQKSVWHGSDPNGRRLTESYCETWRTEAPSATGQASSLLGGRLLGQSAASCHHAYIVLCIENSFMTASK
modifications: Endostatin
average percentage tube branch formation ([4]; 5 μg/ml, BSA 22.7±3.1): 19.4±3.0
average percentage tube branch formation ([4]; 20 μg/ml endostatin): 7.5±6.0
tumor growth inhibition ([5]; 20 mg/kg b.i.d., bolus injection): no significant tumor growth inhibition
inhibition of protein synthesis ([1]; 4.5 μM, 24 hours of serum stimulation, rapamycin 100 ng/ml): did not inhibit protein synthesis

B4: Canstatin: NC1 domain of the α2 chain of Type IV collagen (SEQ ID NO:6) (protein, listed as Homo sapiens)
chain: VSIGYLLVKHSQTDQEPMCPVGMNKLWSGYSLLYFEGQEKAHNQDLGLAGSCLARFSTMPFLYCNPGDVCYYASRNDKSYWLSTTAPLPMMPVAEDEIKPYISRCSVCEAPAIAIAVHSQDVSIPHCPAGWRSLWIGYSFLMHTAAGDEGGGQSLVSPGSCLEDFRATPFIECNGGRGTCHYYANKYSFWLTTIPEQSFQGSPSADTLKAGLIRTHISRCQVCMKNL
apoptosis of PC-3 cells [3]: no significant effect

Source: patent US7387779B2, “Anti-angiogenic proteins and fragments and methods of use thereof” (Beth Israel Deaconess Medical Center, priority 1998, dated 2008)
